We go through two molecules from US20250019439A1 (Adimab, published 2025).

For assay [1], the target named is T1, ADI-26919.
T1 construct: anti-CD3 antibody made in CHO cells, captured by anti-human Fc
Briefly: SPR Carterra avidity, CHO anti-ID, *koff limit. The protocol: (§1) Kinetic analysis was conducted at 25° C. in an HBSTE running buffer system (Carterra Cat #3630) using a Carterra LSA (Carterra USA, Salt Lake City, UT). The sample compartment was maintained at 20° C. for the duration of each experiment.
(§2) For antibody capture experiments, a goat anti-human Fc antibody (Jackson ImmunoResearch) was covalently coupled to an HC30M sensor chip surface via standard amine coupling (1:1 EDC:NHS) and then blocked with ethanolamine (1.0 M, pH 8.5). Covalent coupling steps were performed in 25 mM MES buffer (Carterra, Cat #3625) plus 0.05% Tween20. The anti-CD3 antibodies (100 nM in running buffer) were flowed over discrete regions of interest on the chip surface for 5 minutes. […] Dissociation of the anti-idiotype antibodies was monitored for 300s. Several blank buffer samples were injected over the entire chip surface at the start of each non-regenerative kinetic cycle. The preceding blank buffer injection was used for blank surface subtraction. At the end of each non-regenerative kinetic cycle, all surfaces were regenerated via two 30s injections of 10 mM glycine, pH 1.7.
(§3) For data processing and fitting, sensorgrams were double reference subtracted with a baseline drift correction of 4 RU. Sensorgrams were y-aligned and baseline corrected, filtered and cropped to include only the association and dissociation steps. Data was fitted to a 1:1 binding model using Carterra Kinetics Data Analysis software version 1.7.1.3055.

Assay [2] concerns the target T2, ADI-50024.
T2 construct: anti-CD3 antibody made in CHO cells, captured by anti-human Fc
Briefly: SPR Carterra avidity, CHO anti-ID, *koff limit. The protocol:
as §1, §2, §3

Assay [3] addresses T3, CTL-62223.
T3 construct: also called mosunetuzumab
Briefly: SPR Carterra avidity, CHO anti-ID, *koff limit. Here is the method:
as §1, §2, §3

In assay [4] the target is T4, ADI-76357.
T4 construct: anti-CD3 antibody made in CHO cells, captured by anti-human Fc
T4 sequence (VH, as listed by the source, chain 1 of 2): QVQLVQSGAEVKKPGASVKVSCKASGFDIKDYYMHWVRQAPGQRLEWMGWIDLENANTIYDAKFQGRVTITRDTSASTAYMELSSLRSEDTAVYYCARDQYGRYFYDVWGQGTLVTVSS
T4 sequence (VL, as listed by the source, chain 2 of 2): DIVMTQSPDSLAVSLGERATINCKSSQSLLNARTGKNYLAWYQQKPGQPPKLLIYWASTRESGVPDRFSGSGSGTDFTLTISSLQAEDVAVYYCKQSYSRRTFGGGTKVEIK
Briefly: SPR Carterra avidity, CHO anti-ID, *koff limit. The protocol:
as §1, §2, §3

The target of assay [5] is T5, ADI-26909.
T5 construct: anti-CD3 antibody made in CHO cells, captured by anti-human Fc
T5 sequence (VH, as listed by the source limits assumed, chain 1 of 2): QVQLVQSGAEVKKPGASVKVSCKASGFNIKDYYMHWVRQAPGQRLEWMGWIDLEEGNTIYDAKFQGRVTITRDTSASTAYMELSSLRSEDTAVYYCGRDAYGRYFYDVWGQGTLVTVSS
The assay is described as follows: SPR Carterra avidity, CHO anti-ID, *koff limit. Here is the method: as §1, §2, §3

In assay [6] the target is T6, ADI-26921 IgG.
T6 construct: anti-CD3 IgG
T6 sequence (VH, as listed by the source limits assumed, chain 1 of 2): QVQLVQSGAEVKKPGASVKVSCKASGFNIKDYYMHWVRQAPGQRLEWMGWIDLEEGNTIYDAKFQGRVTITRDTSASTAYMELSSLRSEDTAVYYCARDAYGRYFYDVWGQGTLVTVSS
T6 sequence (VL, as listed by the source limits assumed, chain 2 of 2): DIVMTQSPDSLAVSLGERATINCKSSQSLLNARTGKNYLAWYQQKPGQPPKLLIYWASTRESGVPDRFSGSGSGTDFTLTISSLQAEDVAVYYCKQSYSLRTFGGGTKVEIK
Briefly: SPR Carterra avidity, CHO anti-ID, *koff limit. Here is the method: as §1, §2, §3

Assay [7] concerns the target T7, ADI-26943.
T7 construct: anti-CD3 antibody made in CHO cells, captured by anti-human Fc
The assay is described as follows: SPR Carterra avidity, CHO anti-ID, *koff limit. Here is the method:
as §1, §2, §3

Assay [8] concerns the target T8, ADI-76361.
T8 construct: anti-CD3 antibody made in CHO cells, captured by anti-human Fc
Briefly: SPR Carterra avidity, CHO anti-ID, *koff limit. Here is the method:
as §1, §2, §3

Assay [9] deals with T9, ADI-74967.
T9 construct: pH-dependent anti-CD3 antibody made in CHO cells
T9 sequence (VH, as listed by the source, chain 1 of 2): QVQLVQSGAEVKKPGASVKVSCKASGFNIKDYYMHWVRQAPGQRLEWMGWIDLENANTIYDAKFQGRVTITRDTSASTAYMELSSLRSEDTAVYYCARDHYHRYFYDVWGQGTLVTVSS
T9 sequence (VL, as listed by the source, chain 2 of 2): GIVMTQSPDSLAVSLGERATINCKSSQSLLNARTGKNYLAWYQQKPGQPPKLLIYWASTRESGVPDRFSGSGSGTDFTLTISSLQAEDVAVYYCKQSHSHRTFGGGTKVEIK
Briefly: SPR Carterra avidity, CHO anti-ID, *koff limit. The protocol: as §1, §2, §3

The target of assay [10] is T10, ADI-26924.
T10 construct: anti-CD3 antibody made in CHO cells, captured by anti-human Fc
T10 sequence (VH, as listed by the source, chain 1 of 2): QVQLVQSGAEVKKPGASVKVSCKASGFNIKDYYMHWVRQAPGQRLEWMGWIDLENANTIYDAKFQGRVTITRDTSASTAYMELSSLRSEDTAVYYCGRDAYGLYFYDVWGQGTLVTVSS
Briefly: SPR Carterra avidity, CHO anti-ID, *koff limit. The protocol: as §1, §2, §3

The target in assay [11] is T11, ADI-26906 IgG.
T11 construct: anti-CD3 IgG
T11 sequence (VH, as listed by the source limits assumed, chain 1 of 2): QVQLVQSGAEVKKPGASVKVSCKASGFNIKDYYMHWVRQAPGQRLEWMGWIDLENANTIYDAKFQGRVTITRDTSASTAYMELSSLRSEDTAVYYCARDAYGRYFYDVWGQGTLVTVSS
The assay is described as follows: SPR Carterra avidity, CHO anti-ID, *koff limit. Here is the method:
as §1, §2, §3

Assay [12] has as its target T12, ADI-67447.
T12 construct: anti-CD3 antibody made in CHO cells, captured by anti-human Fc
Briefly: SPR Carterra avidity, CHO anti-ID, *koff limit. Here is the method: as §1, §2, §3

Assay [13] deals with T13, ADI-67445.
T13 construct: anti-CD3 antibody made in CHO cells, captured by anti-human Fc
T13 sequence (VH, as listed by the source limits assumed, chain 1 of 2): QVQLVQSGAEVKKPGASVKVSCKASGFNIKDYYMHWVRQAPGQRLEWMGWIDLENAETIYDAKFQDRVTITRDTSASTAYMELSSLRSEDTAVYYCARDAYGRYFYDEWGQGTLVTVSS
Briefly: SPR Carterra avidity, CHO anti-ID, *koff limit. The protocol:
as §1, §2, §3

Assay [14] has as its target T14, ADI-26920 IgG.
T14 construct: anti-CD3 IgG
Briefly: SPR Carterra avidity, CHO anti-ID, *koff limit. Here is the method:
as §1, §2, §3

For assay [15], the target named is T15, ADI-74965.
T15 construct: pH-dependent anti-CD3 antibody made in CHO cells
T15 sequence (VH, as listed by the source, chain 1 of 2): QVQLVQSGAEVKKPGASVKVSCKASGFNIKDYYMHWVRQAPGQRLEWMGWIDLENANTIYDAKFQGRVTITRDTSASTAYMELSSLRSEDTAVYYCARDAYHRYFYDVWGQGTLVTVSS
T15 sequence (VL, as listed by the source, chain 2 of 2): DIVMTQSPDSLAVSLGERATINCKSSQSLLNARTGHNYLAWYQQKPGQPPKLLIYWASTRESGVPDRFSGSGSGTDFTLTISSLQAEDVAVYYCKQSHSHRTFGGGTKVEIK
The assay is described as follows: SPR Carterra avidity, CHO anti-ID; CHO-produced ADI-34134 (Table 10C). Here is the method: as §1, §2
(§4) For data processing and fitting, sensorgrams were double reference subtracted with a baseline drift correction of 4 RU. Sensorgrams were y-aligned and baseline corrected, filtered and cropped to include only the association and dissociation steps. […]

In assay [16] the target is T16, ADI-48650.
T16 construct: pH-dependent anti-CD3 antibody made in CHO cells
T16 sequence (VH, as listed by the source, chain 1 of 2): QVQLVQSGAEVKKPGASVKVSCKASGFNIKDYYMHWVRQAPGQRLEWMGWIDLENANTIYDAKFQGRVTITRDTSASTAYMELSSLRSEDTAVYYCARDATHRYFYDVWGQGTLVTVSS
T16 sequence (VL, as listed by the source, chain 2 of 2): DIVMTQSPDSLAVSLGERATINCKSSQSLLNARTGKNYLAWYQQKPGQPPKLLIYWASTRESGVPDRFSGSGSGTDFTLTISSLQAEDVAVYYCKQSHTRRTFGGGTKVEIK
The assay is described as above. The protocol: as §1, §2, §4

In assay [17] the target is T17, ADI-22523 Fab.
T17 construct: anti-CD3 Fab by papain digestion of the IgG
T17 sequence (VH, as listed by the source limits assumed, chain 1 of 2): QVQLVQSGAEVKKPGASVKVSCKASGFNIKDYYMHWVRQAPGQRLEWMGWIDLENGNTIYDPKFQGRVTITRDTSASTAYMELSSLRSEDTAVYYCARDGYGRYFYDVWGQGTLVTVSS
T17 sequence (VL, as listed by the source limits assumed, chain 2 of 2): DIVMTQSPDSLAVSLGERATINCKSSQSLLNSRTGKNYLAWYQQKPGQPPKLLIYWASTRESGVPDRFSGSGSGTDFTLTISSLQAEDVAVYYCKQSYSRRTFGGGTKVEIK
Briefly: BLI; tip anti-ID IgG, solution ADI-22523 Fab. The essentials: (§5)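 Sensors carrying captured anti-ID IgG were equilibrated 30 min in assay buffer before a 60 s baseline. Equilibrium KD was taken as koff/kon from a 1:1 model.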
(Biolayer interferometry detects binding as a change in optical thickness at a sensor tip.)

For assay [18], the target named is T18, ADI-74968.
T18 construct: pH-dependent anti-CD3 antibody made in CHO cells
T18 sequence (VL, as listed by the source, chain 2 of 2): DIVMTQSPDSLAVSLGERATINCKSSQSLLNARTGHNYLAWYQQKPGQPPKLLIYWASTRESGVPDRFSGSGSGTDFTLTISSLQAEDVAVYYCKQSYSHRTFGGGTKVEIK
Briefly: SPR Carterra avidity, CHO anti-ID. The protocol: as §1, §2
(§6) In Tables 10A-10C, anti-CD3 antibodies are listed by ADI number or CTL number in the first column. […] CTL-62223 is mosunetuzumab, CTL-62227 is odronextamab, CTL-62228 is glofitamab, and CTL-62240 is ONO-4685. […] “W.B.” means weak binding under the conditions of this assay and thus a KD was unable to be assigned. “N.B.” means no binding under the conditions of this assay.

For assay [19], the target named is T19, ADI-76359.
T19 construct: anti-CD3 antibody made in CHO cells, captured by anti-human Fc
T19 sequence (VH, as listed by the source, chain 1 of 2): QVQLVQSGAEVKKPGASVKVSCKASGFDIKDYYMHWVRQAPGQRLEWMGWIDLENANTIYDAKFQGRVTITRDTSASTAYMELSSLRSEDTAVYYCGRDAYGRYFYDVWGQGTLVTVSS
Briefly: SPR Carterra avidity, CHO anti-ID. The protocol: as §1, §2, §6

In assay [20] the target is T20, ADI-26916 IgG.
T20 construct: anti-CD3 IgG
T20 sequence (VH, as listed by the source, chain 1 of 2): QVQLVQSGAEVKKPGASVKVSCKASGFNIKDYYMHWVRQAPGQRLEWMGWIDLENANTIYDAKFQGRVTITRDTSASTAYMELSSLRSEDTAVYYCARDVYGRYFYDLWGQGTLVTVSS
The assay is described as follows: SPR Carterra avidity, CHO anti-ID. Here is the method:
as §1, §2, §6

Assay [21] has as its target T21, ADI-22523 IgG.
T21 construct: anti-CD3 IgG
The assay is described as follows: BLI; tip anti-ID IgG, solution ADI-22523 IgG. Summed up:
as §5

Assay [22] deals with T1, ADI-26919. The assay is described as follows: SPR Carterra avidity, yeast anti-ID. The essentials: (§7)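 Measured at 25° C in HBSTE running buffer on a Carterra LSA; anti-CD3 antibodies (100 nM) were captured for 5 min on an amine-coupled goat anti-human Fc HC30M chip. Anti-idiotype dissociation was followed for 300s, and double-referenced sensorgrams were fitted to a 1:1 binding model.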

For assay [23], the target named is T4, ADI-76357. Briefly: SPR Carterra avidity, yeast anti-ID. Summed up: as §7
Assay [24] addresses T7, ADI-26943. Briefly: SPR Carterra avidity, yeast anti-ID. The essentials: as §7
Assay [25] deals with T10, ADI-26924. The assay is described as follows: SPR Carterra avidity, yeast anti-ID. Summed up:
as §7

The target in assay [26] is T22, ADI-26913 IgG.
T22 construct: anti-CD3 IgG
T22 sequence (VH, as listed by the source limits assumed, chain 1 of 2): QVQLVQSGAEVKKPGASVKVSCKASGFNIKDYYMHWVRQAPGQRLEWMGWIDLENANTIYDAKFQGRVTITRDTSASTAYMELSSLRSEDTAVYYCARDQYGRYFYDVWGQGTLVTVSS
Briefly: SPR Carterra avidity, yeast anti-ID. The essentials: as §7

Assay [27] has as its target T14, ADI-26920 IgG. The assay is described as follows: SPR Carterra avidity, yeast anti-ID. The essentials: as §7
The target in assay [28] is T22, ADI-26913 IgG. Briefly: SPR Carterra avidity, CHO anti-ID, *koff limit. The protocol: as §1, §2, §3

T14 sequence (VH, as listed by the source limits assumed, chain 1 of 2): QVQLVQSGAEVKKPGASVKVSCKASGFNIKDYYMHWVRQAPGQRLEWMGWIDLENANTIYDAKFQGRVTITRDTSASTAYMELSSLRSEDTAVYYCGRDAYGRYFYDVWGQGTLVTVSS
T7 sequence (VH, as listed by the source, chain 1 of 2): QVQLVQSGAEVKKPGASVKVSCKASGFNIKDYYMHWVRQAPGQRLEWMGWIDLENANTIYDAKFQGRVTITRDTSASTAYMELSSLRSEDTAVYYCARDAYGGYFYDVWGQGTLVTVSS
T7 sequence (VL, as listed by the source, chain 2 of 2): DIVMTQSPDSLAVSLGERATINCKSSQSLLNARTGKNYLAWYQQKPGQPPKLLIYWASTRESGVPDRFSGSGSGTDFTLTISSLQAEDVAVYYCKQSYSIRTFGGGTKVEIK
T3 sequence (VH, as listed by the source, chain 1 of 2): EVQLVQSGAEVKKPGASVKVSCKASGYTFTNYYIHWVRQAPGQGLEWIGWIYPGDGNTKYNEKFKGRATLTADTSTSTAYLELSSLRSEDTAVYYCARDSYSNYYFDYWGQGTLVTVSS
T3 sequence (VL, as listed by the source, chain 2 of 2): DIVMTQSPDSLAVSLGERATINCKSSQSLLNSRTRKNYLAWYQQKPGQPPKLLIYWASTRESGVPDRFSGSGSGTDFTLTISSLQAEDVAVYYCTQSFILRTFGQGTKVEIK
T2 sequence (VH, as listed by the source limits assumed, chain 1 of 2): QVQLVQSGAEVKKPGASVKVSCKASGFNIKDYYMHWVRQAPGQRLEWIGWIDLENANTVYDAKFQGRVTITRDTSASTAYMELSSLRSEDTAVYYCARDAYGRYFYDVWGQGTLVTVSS
T2 sequence (VL, as listed by the source limits assumed, chain 2 of 2): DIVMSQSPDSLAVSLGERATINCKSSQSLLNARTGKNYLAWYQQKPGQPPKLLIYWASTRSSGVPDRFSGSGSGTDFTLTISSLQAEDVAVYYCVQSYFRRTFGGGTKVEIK
T12 sequence (VH, as listed by the source limits assumed, chain 1 of 2): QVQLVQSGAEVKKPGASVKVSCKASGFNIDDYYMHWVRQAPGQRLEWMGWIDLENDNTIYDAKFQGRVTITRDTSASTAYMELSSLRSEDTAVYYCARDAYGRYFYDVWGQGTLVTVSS
T8 sequence (VH, as listed by the source, chain 1 of 2): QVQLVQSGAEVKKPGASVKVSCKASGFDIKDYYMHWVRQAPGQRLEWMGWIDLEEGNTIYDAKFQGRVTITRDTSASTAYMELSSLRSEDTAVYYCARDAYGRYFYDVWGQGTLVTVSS

B1: ADI-34134 IgG (antibody, V domains shown)
VH: QVQLVQSGAEVKKPGSSVKVSCKASGGTFSSYAISWVRQAPGQGLEWMGGIIPIFGTANYAQKFQGRVTITADESTSTAYMELSSLRSEDTAVYYCARGAPNYYGSGGYDDGWFDPWGQGTLVTVSS
VL: EIVLTQSPGTLSLSPGERATLSCRASQSVSSDYLAWYQQKPGQAPRLLIYGASSRATGIPDRFSGSGSGTDFTLTISRLEPEDFAVYYCQQFGRVPTFGGGTKVEIK
B1: the Kd in assay [1] came to 0.11 nM; in assay [2], 0.26 nM; in [3] it was 0.19 nM; in assay [4] it was 0.088 nM; in assay [5] it was 0.11 nM; in assay [6], 0.11 nM. The Kd in assay [7] came to 0.1 nM; in [8] it was 0.094 nM; in [9] it was 0.11 nM; in assay [10] it was 0.1 nM; in assay [11], 0.18 nM; in [12] it was 0.12 nM. In addition, the Kd in [13] was determined as 0.13 nM; in assay [14], 0.11 nM; in [17], 5.62 nM; in assay [18] it was 0.78 nM; in assay [19] it was 0.15 nM; in assay [20], 0.17 nM. For the same molecule, the Kd was found to be 0.46 nM in assay [21]; 9.1 nM in [22]; 9.5 nM in [23]; 13 nM in assay [24]; 20 nM in assay [25]; 21 nM in assay [26]. The molecule further came in with a Kd in assay [27] of 16 nM. Besides, the binding result in assay [15] and in assay [16] was “binds” throughout.

B2: ADI-34145 IgG (antibody, V domains shown)
VH: EVQLLESGGGLVQPGGSLRLSCAASGFTFSSYAMSWVRQAPGKGLEWVSTISGSGGSTYYADSVKGRFTISRDNSKNTLYLQMNSLRAEDTAVYYCARLGGRRGSGSSYYYYYGMDVWGQGTTVTVSS
VL: not shown
notes: anti-ID IgG
For B2, the Kd in [11] was found to be 6.4 nM; in assay [28] it was 4.4 nM; in assay [17] it was 4.13 nM; in [18], 41 nM; in assay [19], 8 nM; in [20] it was 17 nM. The Kd amounted to 2.72 nM in [21]; 18 nM in assay [22]; 23 nM in assay [23]; 9.5 nM in assay [24]; 17 nM in assay [25]; 18 nM in [26]. This molecule also registered a Kd in assay [27] of 8.6 nM.
